In PMC10611554, “AcbHLH144 transcription factor negatively regulates phenolic biosynthesis to modulate pineapple internal browning”:

Target: T1, GST-AcbHLH144 (pineapple, UniProt A0A6P5FRB5 1-240)
T1 sequence: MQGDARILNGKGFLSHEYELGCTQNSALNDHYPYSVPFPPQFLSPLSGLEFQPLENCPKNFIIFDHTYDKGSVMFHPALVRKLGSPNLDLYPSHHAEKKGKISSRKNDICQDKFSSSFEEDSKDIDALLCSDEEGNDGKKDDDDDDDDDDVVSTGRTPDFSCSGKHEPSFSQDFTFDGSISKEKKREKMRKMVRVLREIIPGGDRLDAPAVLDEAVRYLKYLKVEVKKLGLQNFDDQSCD
Experiment: EMSA; Chemiluminescent EMSA Kit (Beyotime); buffer, salt, pH and temperature not stated
Conditions: protein: recombinant; tags: N-terminal GST (pGEX-4T-1); chain copies: 2; label: biotin; blunt

B1: Ac4CL5 promoter N-box probe (dsDNA)
DNA 1: CGGAGCACCTGCCCCTGCACGAGTACTGCTTCGAGCAGCT
DNA 2: AGCTGCTCGAAGCAGTACTCGTGCAGGGGCAGGTGCTCCG
B1: binds.
